Experiment: soluble on expression in E. coli; label from the status in PepcDB or PDB records

Which “soluble on expression in E. coli” value does the source give for “YFEVNITMSSGLWSQEKVTSPYWEERIFYLLLQECSVTDKQTQKLLKVPKGSIGQYIQDRSVGHSRIPSAKGKKNQIGLKILEQPHAVLFVDEKDVVEINEKFTELLLAITNCEERFSLFKNRNRLSKGLQIDVGCPVKVQLRSGEEKFPGVVRFRGPLLAERTVSGIFFGVELLEEGRGQGFTDGVYQGKQLFQCDEDCGVFVALDKLELIEDDDTALESDYAGPGDTMQVELPPLEINSRVSLKVGETIESGTVIFCDVLPGKESLGYFVGVDMDNPIGNWDGRFDGVQLCSFACVESTILLHINDIIPESVTQERRPPKLAFMSRGVGDKGSSSHNKPKATGSTSDPGNRNRSELFYTLNGSSVDSQPQSKSKNTWYIDEVAEDPAKSLTEISTDFDRSSPPLQPPPVNSLTTENRFHSLPFSLTKMPNTNGSIGHSPLSLSAQSVMEELNTAPVQESPPLAMPPGNSHGLEVGSLAEVKENPPFYGVIRWIGQPPGLNEVLAGLELEDECAGCTDGTFRGTRYFTCALKKALFVKLKSCRPDSRFASLQPVSNQIERCNSLAFGGYLSEVVEENTPPKMEKEGLEIMIGKKKGIQGHYNSCYLDSTLFCLFAFSSVLDTVLLRPKEKNDVEYYSETQELLRTEIVNPLRIYGYVCATKIMKLRKILEKVEAASGFTSEEKDPEEFLNILFHHILRVEPLLKIRSAGQKVQDCYFYQIFMEKNEKVGVPTIQQLLEWSFINSNLKFAEAPSCLIIQMPRFGKDFKLFKKIFPSLELNITDLLEDTPRQCRICGGLAMYECRECYDDPDISAGKIKQFCKTCNTQVHLHPKRLNHKYNPVSLPKDLPDWDWRHGCIPCQNMELFAVLCIETSHYVAFVKYGKDDSAWLFFDSMADRDGGQNGFNIPQVTPCPEVGEYLKMSLEDLHSLDSRRIQGCARRLLCDAYMCMYQSPTMSLYK” here?
The value was “soluble”.

For “SLHELSIVESLIELCEENALNNKAYNVQEIYVKIGRLSGIEVDLFKRCFETFKENSNICKNAKLFIELAPLEILCLKCDQTSILEENVFKCPKCQSIEYKIIQGEDLHLMRLVMK”, which “soluble on expression in E. coli” value is on record?
Its value is “soluble”.

For “MESTKSYDIPILRNVSRSFSVHYRDYLQRCGIFVPKEGNSSGPDAYVVFHNGQTRYVVGFSFKFYHKSEFSKRNIEEEAKKFFKGVVSVLNDESFSSVQLRFQFVMVVCTSYGRSVVFSSEEQNIVEDASYLVTEHSSGSTLNESSRSCLQLVIVSQRNLEMYLGRDNVETLRKIGEASREEFSKDFSVWCETVFESMSNEYVSPLEQSNVTLRVARNIRPRTNEENRMQIEELQTAMKVERSVAASSSLSSSFDWNTFLREYCGLSEEDVAYCLPKVEDIDMDELPAVTKEILRDLGIDKPALRLKIRSSIRSYLANER”, which “soluble on expression in E. coli” value is on record?
The value was “soluble”.

With “MGSDKIHHHHHHMSQLEKAQAEYAGFIQEFQSAIISTISEQGIPNGSYAPFVIDDAKNIYIYVSGLAVHTKNIEANPLVNVLFVDDEAKTNQIFARRRLSFDCTATLIERESQKWNQVVDQFQERFGQIIEVLRGLADFRIFQLTPKEGRFVIGFGA” as the sequence, how does the “soluble on expression in E. coli” value read?
The value was “soluble”.

Which “soluble on expression in E. coli” value does the source give for “MSLNRSSFDLLSTVEYGGCSAKLDPAKLSELLHDIPLPVDSRIMVDVSTHDDAGVYRLNDDTALIVTTDFFPPVCSDPYTFGRIAAANALSDVYAMGGRPLLVLNLTMFPSEGIPVEVLADILRGGQQTIDESGAFTMGGHTIDDPIPKYGLAVTGIVHPEHLVTNAGVRAGQCLVLTKPLGIGVAMAAHRLGLIGSEVYEAAIGQMCLLNRAGAELMQKYGIRGATDITGFGLLGHAKELAEASDVCLHIDSRSVPVLPECLSLLRDGCIPGATFRNLRFVGDMLRADCPTEYKMLLADAQTSGGLLMAVDADRAEDLVADLHRTGLHPFAAIIGYATDAEDAAKLIVTEGHHHHHH” here?
The value was “soluble”.

With “MLRLEEDEPSPGICDQLHEIVRSIGLLCYVACPPIPSEIIRKLAFHPPDKGATYRIELKSDPEKDLESVRDCHDEPVQLVVRDRVHPEVKVFSVTTSEDSHLVCVKCSPNCYSKNPEVANQVVLFCQSSSADLGSFLQPNSMNFSTFANLFETDVYAFDYSGYGFSSGTQSEKNMYADVRAVYEHILKTRPDKKIVVIGYSIGTTAAVDLAASNPDRLVGVVLIAPLTSALRMFCNNPDKETTCIDKICHINTRVLICHGDHDQRIPMTHGMALYENLKNPVPPLIVHGANHHSIISGEYIEVFTRIASFMRNETLLSCRANQIESSSSKKFKHE” as the sequence, how does the “soluble on expression in E. coli” value read?
The value was “not soluble”.

With “MSLDSIELMAKIHASARWSEAALQILADETRRILKHEAGTRAGEDPEQLHQMRVGIRRLRSALRLFEPALKLPKPARRRSLSPLAAVLGSVRDLDVQMEMLRERYLGALPEGEQQALERLLAHLESLRTQARSAMLRYLDGLDYEQFKSAYTEFLESPKFRRGADESLYHLLPAFLREALSTLWAHPGWEEPDVETMHDLRIAVKRVRYNLEFFLGCYGKAVRSLHGELKRIQEELGIIHDCDVLLGQLHTEPLGPATPWQQPFSRLTALVRNERRNAVRRFRRLKTRLLSEDMRNSLAVWVSWPGTADDEGHHHHHH” as the sequence, how does the “soluble on expression in E. coli” value read?
The value was “not soluble”.

For “MTQPLVGKQILIVEDEQVFRSLLDSWFSSLGATTVLAADGVDALELLGGFTPDLMICDIAMPRMNGLKLLEHIRNRGDQTPVLVISATENMADIAKALRLGVEDVLLKPVKDLNRLREMVFACLYPSMFN”, which “soluble on expression in E. coli” value is on record?
The value was “soluble”.

With “MELEDANVTKKVELRPLIGLTRGLPPTDLETITIDAIRTHRRLVEKADELFQALPETYKTGQACGGPQHIRYIEASIEMHAQMSALNTLYSILGFIPKVVVN” as the sequence, how does the “soluble on expression in E. coli” value read?
The value was “soluble”.

For “MGSDKIHHHHHHKSVHPYWSQVEQGVKAAGKALGVDTKFFVPQKEDINAQLQMLESFIAEGVNGIAIAPSDPTAVIPTIKKALEMGIPVVTLDTDSPDSGRYVYIGTDNYQAGYTAGLIMKELLGGKGKVVIGTGSLTAMNSLQRIQGFKDAIKDSEIEIVDILNDEEDGARAVSLAEAALNAHPDLDAFFGVYAYNGPAQALVVKNAGKVGKVKIVCFDTTPDILQYVKEGVIQATMGQRPYMMGYLSVTVLYLMNKIGVQNTLMMLPKVKVDGKVDYVIDTGVDVVTPENLDEYLKKMEELGIPIKF”, which “soluble on expression in E. coli” value is on record?
The value was “not soluble”.

Which “soluble on expression in E. coli” value does the source give for “MDTVTKLSIIIPAWNEETGIARTLETLLALTAGRGDTEIIVSVSGNDRTKAIARTFPVVVCHSEKGRAVQMNAGAKLATGSILYFLHADTTPPPSFCDDIFSAIERGARAGCFRMTFDDPDWLMQLYGWFTQFPLPVCRGGDQSLFITKELFGQIGGFDERLQIMEDIEIIDRLQRHAGFHILDSTVTTSARKYHTNGTVRLQAIFGTIHLMYALGFSQKNIVAFYRDSIRLEHHHHHH” here?
The value was “not soluble”.

With “MSLNFEYIINSLLETIKTYNFFVDWEKIENNIKKIEKRLHILNYLIGKENFKEEFFELLKEYPEVITVFPILIAVRDNKITILNENMELETLEFKEKKYLTDEEIERYYKFFKETGLEDLLKNRKIKNLVDYVFGVEVGMDTNARKNRIGDLMENIVKKYIENLCKQNKNLDYIFQATKDKIKQKWGINLTLDKTNRKFDFAVFNKNTKKLYLIEVNFYSGGGSKLKATAGEYRSLNEFIKNNNNNVQFIWITDGKGWNTAKNPLKESFNSGVVILNLKMVKEGLLKEILTQEGHHHHHH” as the sequence, how does the “soluble on expression in E. coli” value read?
The value was “soluble”.

For “MGSDKIHHHHHHMSQTLLALYGLKWNPFSADLPIAAVSVPPKVEDFCWRIEHALVREGGFALIQGDPGTGKSVILRLLAERLSRLPDLTVGAIHHPQSNLADFYRELGDIFAVSLKPSNRWGGFKALRERWLAHLEATRRRPVLLIDEAQEMNAPVLCELRLLSSARFDSQSLLSVLLAGDARLTEKLRREELVPLGSRIRVRLHTESASRNELLGCLEHLMTEAGNAGLMTAGLCQTLCDHAMGNYRVLTQMAAELLAAATQRQLDQLDEKLFLELYGPAQQPARRKAAH”, which “soluble on expression in E. coli” value is on record?
Its value is “not soluble”.

With “MASGDFRLCDVVLDDSIGRSTPDVEHERAVAIFDLIEENTFEPAGHDGGPYRLHISLVDAKLVFAIKTEDDKDVSTHILSLTPFRRIIKDYFLICESYYEAIRSSTPSQIEAIDMGRRGIHNDGSQTLMDRLSGKIKVDFDTARRLFTLVCVLYWRG” as the sequence, how does the “soluble on expression in E. coli” value read?
The value was “not soluble”.

For “GLSDRYQRVKKLGSGAYGEVLLCKDKLTGAERAIKIIKKSSVTTTSNSGALLDEVAVLKQLDHPNIMKLYEFFEDKRNYYLVMEVYRGGELFDEIILRQKFSEVDAAVIMKQVLSGTTYLHKHNIVHRDLKPENLLLESKSRDALIKIVDFGLSAHFEVGGKMKERLGTAYYIAPEVLRKKYDEKCDVWSCGVILYILLCGYPPFGGQTDQEILKRVEKGKFSFDPPDWTQVSDEAKQLVKLMLTYEPSKRISAEEALNHPWIVKFCSQKHTDVGKHALTGALGNMKKFQSSQKLAQAAMLFMGSKLTTLEETKELTQIFRQLDNNGDGQLDRKELIEGYRKLMQWKGDTVSDLDSSQIEAEVDHILQSVDFDRNGYIEYSEFVTVCMDKQLLLSRERLLAAFQQFDSDGSGKITNEELGRLFGVTEVDDETWHQVLQECDKNNDGEVDFEEFVEMMQKICDVKVKH”, which “soluble on expression in E. coli” value is on record?
The value was “soluble”.

For “GPGSMSATEAVVEPKAPDVCTEANERPPTESGVAAPVKRLFDLLQEDSKERVVRLLTAFRELTLLEQESLAQEMGVTLPKEEKWRAPCPLIARQPSGPSLEVRRRDPSYVALCPSVSSALRELGSKEAARRLPDADLRKLVEGALGEDGVYLTVPESDGEGCAAASERVGVVDDGKPPLLVRSRCYQALRLARDEEIETDAQYTRPRVLNVTGIPLEESDVWEWFNLLDVARNGTVGVDAFLTSVRELDRGFGTSSKVQEAFEDESRSLSVDGQLSFDKFAYLVTRFSRY”, which “soluble on expression in E. coli” value is on record?
Its value is “soluble”.

Which “soluble on expression in E. coli” value does the source give for “SKGWGWLALLLGVLLGTAWARRSQDLHCGACRALVDELEWEIARVDPKKTIQMGSFRINPDGSQSVVEVPYARSEAHLTELLEEVCDRMKEYGEQIDPSTHRKNYVRVVSRNGESSELDLQGIRIDSDISGTLKFACESIVEEYEDELIEFFSREADNVKDKLCSKRTDLCDHALHRSHDEL” here?
The value was “soluble”.

For “MKNSVDRELPAELMTKLNYQGFESTEIGHPEIQRVAPKVHVSTGDNKVVDSVADVVKATVKDGMTISFHHHFRNGDFVFNQVMRAIIDAGIKDLTLAPSSLTGVMNDMVIEAIKAGTITNITSSGMRGSLGDFVSHGGLKNPVIFRSHGNRARAIEHGDIKIDVAFLGVPNADRLGNANGMAGKAVFGSLGYALMDAQYANQVVLLTDNIVAYPNTPASIKQTQVDYVVQVDQVGDPDKIGSGATRFTKDPKELKIAQTVNNVIVNSPYFKNGFSFQTGSGGAALAVTRYLRQAMLDNQIKASFALGGITKPTTDLLEEGLVDKVMDVQDFDKGAAASMHANPNQQEIDASWYADPDNKGAMVDQLDVAILSALEIDTHFNVNVMSGSDGVIRGAIGGHQDAATAKLTIISAPLVRGRLATIVPEVTTVVTPGDSIDVVVTEYGIAINPRRQDLVKALSHVPGVPVYMIEELQQLAEKKVGQPQPLEFTDRTVALIEYRDGTIIDTIKAVKDLEHHHHHH”, which “soluble on expression in E. coli” value is on record?
The value was “not soluble”.

For “MGSDKIHHHHHHMRIGVAGVGKLGEFHTNLLKQIAAEASDVEFSGVFDLNPERLQEIGKKYGVACFSTLEELAASCDAAVIATTTSSHYAIARQLLEARLHLFIEKPITATLEEADKLIRIEQEKGLTIQVGHIERFNPALLAVEPYIGEPMYIQAERLSGFSRRVTDVSVVLDLMIHDIDLVLSLIKSDIRSIAASGVKVFSNELDMATARIEFENGAIANVTASRLSRSKLRKMRFFTRNPKSYASLDFTSGKSEVFRLVPPDQLSSKNPIKNFATKKILEQFGEIQESLKEMALDYVSPDVPKINALKEELEQFIDAIRKGKPAKVTSEEGRRALMVAGKITDEIRNNTADLD”, which “soluble on expression in E. coli” value is on record?
Its value is “not soluble”.

For “MSLLFDSHLHLDQLSDENIQQTLAHSKIIGMLAVSTNLNSAKKLLNLKQTYPKKLYIAAGFHPEQQLPSLEEQKKLFQWIDEHHSSISAIGEVGLPHYSKRENPNLDYVPYIELLERFILIAKKWDLPLNLHIVHNDVEIALELLQKHNIQRAHFHWFKTDEKSFQKFFSTPYFASLTPDILWNSKTQYVAQHLSLNRLMIETDSPWQHEGFERAGISEQLLAVLQKLAELKSLPLHSVQKQILLNTQQFYQLEGHHHHHH”, which “soluble on expression in E. coli” value is on record?
The value was “soluble”.

Source: the DeepSol protein solubility set
